Target: RPA (native, unlabeled heterotrimer) (human, UniProt P27694;P15927;P35244 1-616;1-270;1-121)
Experiment: FRET equilibrium titration

Chain of RPA (native, unlabeled heterotrimer) (P27694 whole entry, chain 1 of 3): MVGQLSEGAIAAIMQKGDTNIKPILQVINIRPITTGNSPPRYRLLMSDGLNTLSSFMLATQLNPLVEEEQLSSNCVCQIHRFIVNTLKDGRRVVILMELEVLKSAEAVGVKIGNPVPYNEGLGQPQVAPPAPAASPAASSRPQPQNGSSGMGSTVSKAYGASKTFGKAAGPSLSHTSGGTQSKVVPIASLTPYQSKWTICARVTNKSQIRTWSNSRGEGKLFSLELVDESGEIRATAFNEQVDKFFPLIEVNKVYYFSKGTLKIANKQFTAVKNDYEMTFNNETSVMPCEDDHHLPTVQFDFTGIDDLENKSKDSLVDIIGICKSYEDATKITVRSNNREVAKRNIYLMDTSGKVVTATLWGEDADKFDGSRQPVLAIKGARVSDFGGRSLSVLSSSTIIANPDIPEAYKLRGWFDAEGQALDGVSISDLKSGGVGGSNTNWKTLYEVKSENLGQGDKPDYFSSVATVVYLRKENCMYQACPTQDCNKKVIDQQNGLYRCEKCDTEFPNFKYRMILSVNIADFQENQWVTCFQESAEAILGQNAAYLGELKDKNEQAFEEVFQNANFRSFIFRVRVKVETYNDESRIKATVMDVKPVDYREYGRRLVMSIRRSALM
Chain of RPA (native, unlabeled heterotrimer) (P15927 whole entry, chain 2 of 3): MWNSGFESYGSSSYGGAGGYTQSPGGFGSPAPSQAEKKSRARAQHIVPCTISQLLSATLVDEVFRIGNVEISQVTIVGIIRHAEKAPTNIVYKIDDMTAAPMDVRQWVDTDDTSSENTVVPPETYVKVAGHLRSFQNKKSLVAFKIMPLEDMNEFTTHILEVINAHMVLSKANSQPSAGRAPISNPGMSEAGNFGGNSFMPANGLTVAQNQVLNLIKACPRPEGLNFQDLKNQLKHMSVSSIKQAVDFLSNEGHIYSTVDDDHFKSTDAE
Chain of RPA (native, unlabeled heterotrimer) (P35244 whole entry, chain 3 of 3): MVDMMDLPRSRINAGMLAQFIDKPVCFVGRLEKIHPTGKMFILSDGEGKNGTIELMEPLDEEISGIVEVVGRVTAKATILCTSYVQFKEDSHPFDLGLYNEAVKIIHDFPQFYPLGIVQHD

TTTTTTTTTTTTTTTTTTTTTTTTTTTTTT (ssDNA) [poly(dT)30-FRET]
binding result: binds

— publication PMC11260492
